Results taken from US20210139610A1, “COMPOSITIONS AND METHODS FOR MEDIATING EPS” (priority 2018, published 2021).
Entries after “also recorded” stand apart in the source; their conditions may differ.

Assays:
[1] = system: Non-typeable Haemophilus influenzae biofilms; assay: NTHI in vitro biofilm formation, additive present from seeding (LIVE/DEAD, CLSM, COMSTAT); assay type: cell-based; conditions: DNase (Pulmozyme) added at seeding
Method: FIG. 14: Non-typeable Haemophilus influenzae biofilms were grown for 40 h in supplemented BHI medium containing additives as indicated below each bar in 8 well chambered coverglass slides at 37° C. and 5% CO2. Biofilms were washed, stained with LIVE/DEAD®, fixed, and imaged by CLSM. Biofilm parameters were quantified using COMSTAT software.
Dicyclohexylamine inhibits spermidine synthase via a competitive inhibition mechanism, i.e. through binding to the same site on the protein as the putrescine substrate. Applicants therefore hypothesized that dicyclohexylamine would inhibit NTHi biofilm development. […]

[2] = system: Z-DNA and B-DNA in the NTHI biofilm extracellular matrix; assay: Immunofluorescence CLSM for Z-DNA / B-DNA in NTHI biofilms; assay type: cell-based, Non-typeable Haemophilus influenzae; conditions: DNase (Pulmozyme; 5 units) at 24 h, read at 40 h
Method: FIG. 31: DNase degrades B-DNA, but not Z-DNA, within the biofilm extracellular matrix. DNase (Pulmozyme; 5 units) was added at 24 h after biofilm seeding to in vitro pre-formed NTHI biofilms.
FIG. 37: HMGB1 destabilizes Z-DNA structures in the biofilm extracellular matrix. Non-typeable Haemophilus influenzae biofilms were grown in supplemented BHI media in 8 well chambered coverglass slides at 37° C. and 5% CO2. After 24 h, biofilms were treated as indicated above. After 40 h, biofilms were washed, probed with primary antibodies directed against Z-DNA (light gray dots), a fluorescent secondary antibody, stained with DAPI (gray regions), and visualized via fluorescence microscopy.
FIGS. 50A-50B: Equilibrium shift of B-DNA to Z-DNA conversion alters biofilm formation. NTHI biofilms formed for 24 h were incubated with cerium chloride (CeCl3) or chloroquine for an additional 16 h and were probed with naive or anti-Z-DNA (white) by immunofluorescence CLSM.
FIGS. 51A-51B: Equilibrium shift of B-DNA to Z-DNA conversion alters biofilm formation. NTHI biofilms formed for 24 h were incubated with cerium chloride (CeCl3) (FIG. 51A) or chloroquine (FIG. 51B) for an additional 16 h. Z-DNA was measured by IF and CLSM using anti-Z-DNA and cells were stained with the membrane stain FM4-64. Bars represent the SEM. Statistical significance compared to control was assessed by paired t-tests, *P<0.05, **P<0.01.

[3] = target: T1, DNABII-polyamine dependent DNA structures (Haemophilus influenzae, UniProt P43722); assay: EPS scaffold mimetic (gDNA + HU + spermidine) structures, CLSM; assay type: biochemical; conditions: gDNA 2 μg/ml + HU + spermidine; Pulmozyme treatment
T1 sequence (P43722 whole entry, looked up): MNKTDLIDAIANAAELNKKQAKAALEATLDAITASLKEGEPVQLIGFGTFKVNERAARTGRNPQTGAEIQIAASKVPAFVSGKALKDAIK
Method: FIGS. 4A-4B: Anti-DNABII disrupts DNABII-polyamine (PA) dependent structures. (FIG. 4A) DNA structures were formed by incubating spermidine (300 μM) and HU (1 μM) in buffer that contained genomic DNA (gDNA; 2 μg/ml) for 40 h. Immunofluorescence CLSM images of DNABII-polyamine dependent DNA structures. Probed for DNABII proteins (white; indicated on the right side of the image) and counterstained with DAPI (white; indicated on the left side of the image). DNABII polyamine dependent DNA structures incorporate DNABII proteins. (FIG. 4B) EPS structures were formed as in (FIG. 4A) for 24 h and treated for additional 16 h with 1:50 dilution of DNABII antiserum (indicated below the image). Fluorescence CLSM images stained with DAPI (white). DNABII-polyamine dependent DNA structures require DNABII proteins.
FIG. 45: Polyamines and DNABII proteins stimulate Z-DNA, which is DNAse resistant. Immunofluorescence images of EPS scaffold mimetic formed de novo by addition of DNABII protein (HUNTHI, 500 nM) and spermidine (300 μM) to purified genomic DNA (2 μg/ml) and incubation at 37° C. for 16 h. […]
Applicants hypothesized that DNABII and polyamines interact with eDNA synergistically to confer DNase resistance to mature biofilms. […] Degradation was assessed by agarose gel electrophoresis and UV illumination. […]

B1: DNase: Pulmozyme, a recombinant human DNase used for management of cystic fibrosis patients (protein, UniProt P24855 23-282, looked up)
Deoxyribonuclease-1: LKIAAFNIQTFGETKMSNATLVSYIVQILSRYDIALVQEVRDSHLTAVGKLLDNLNQDAPDTYHYVVSEPLGRNSYKERYLFVYRPDQVSAVDSYYYDDGCEPCGNDTFNREPAIVRFFSRFTEVREFAIVPLHAAPGDAVAEIDALYDVYLDVQEKWGLEDVMLMGDFNAGCSYVRPSQWSSIRLWTSPTFQWLIPDSADTTATPTHCAYDRIVVAGMLLRGAVVPDSALPFNFQAAYGLSDQLAQAISDHYPVEVMLK
Q: What does the source list for B1?
A: NTHI biofilm prevention (average thickness, biomass) [1]: significant reduction in average thickness and biomass of NTHI and UPEC biofilms; also recorded: can prevent formation of; B-DNA form eDNA in NTHI biofilm matrix [2]: degrades B-DNA form eDNA structures; Z-DNA form eDNA in NTHI biofilm matrix [2]: reveals extensive Z-DNA form eDNA; effect of DNase on EPS scaffold mimetic structures [3]: DNA structures were resistant to DNase; also recorded: selectively eliminated B-DNA whereas Z-DNA remained intact
